The values that follow come from article PMC2582629 (Nucleic Acids Research, 2008).

The assay addresses T1, mouse mMLH1 (mouse, UniProt Q9JK91 1-760).
T1 sequence (looked up): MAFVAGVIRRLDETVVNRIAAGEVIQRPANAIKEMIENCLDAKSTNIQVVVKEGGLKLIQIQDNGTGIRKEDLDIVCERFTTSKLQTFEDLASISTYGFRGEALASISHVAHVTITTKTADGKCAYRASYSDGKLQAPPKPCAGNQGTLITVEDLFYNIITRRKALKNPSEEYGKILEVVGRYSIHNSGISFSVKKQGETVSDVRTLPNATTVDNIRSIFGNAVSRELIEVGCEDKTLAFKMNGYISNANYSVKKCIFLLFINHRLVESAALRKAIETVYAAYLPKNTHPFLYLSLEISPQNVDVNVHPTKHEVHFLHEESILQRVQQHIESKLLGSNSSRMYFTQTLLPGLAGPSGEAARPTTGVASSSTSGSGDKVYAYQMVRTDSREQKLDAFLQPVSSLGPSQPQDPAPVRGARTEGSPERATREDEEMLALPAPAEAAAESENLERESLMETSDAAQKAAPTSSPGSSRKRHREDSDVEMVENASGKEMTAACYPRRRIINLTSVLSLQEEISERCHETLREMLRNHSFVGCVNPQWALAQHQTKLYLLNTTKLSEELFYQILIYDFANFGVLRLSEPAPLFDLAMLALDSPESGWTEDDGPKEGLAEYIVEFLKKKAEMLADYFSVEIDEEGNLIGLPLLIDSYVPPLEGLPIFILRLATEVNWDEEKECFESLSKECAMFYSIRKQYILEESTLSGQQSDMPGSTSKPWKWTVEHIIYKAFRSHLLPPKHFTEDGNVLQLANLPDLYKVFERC
In words: pull-down.

B1: GST-hRad9 (natural protein, human, UniProt Q99638 1-391, looked up)
chain: MKCLVTGGNVKVLGKAVHSLSRIGDELYLEPLEDGLSLRTVNSSRSAYACFLFAPLFFQQYQAATPGQDLLRCKILMKSFLSVFRSLAMLEKTVEKCCISLNGRSSRLVVQLHCKFGVRKTHNLSFQDCESLQAVFDPASCPHMLRAPARVLGEAVLPFSPALAEVTLGIGRGRRVILRSYHEEEADSTAKAMVTEMCLGEEDFQQLQAQEGVAITFCLKEFRGLLSFAESANLNLSIHFDAPGRPAIFTIKDSLLDGHFVLATLSDTDSHSQDLGSPERHQPVPQLQAHSTPHPDDFANDDIDSYMIAMETTIGNEGSRVLPSISLSPGPQPPKSPGPHSEEEDEAEPSTVPGTPPPKKFRSLFFGSILAPVRSPQGPSPVLAEDSEGEG
Consider B1, for which the binding result was “binds”.
